Reference: patent publication US20250313611A1
Where “and” joins values, the source holds several entries; their conditions need not be identical. Identical values can stand only once.

Target: spike proteins of the tested omicron
Test: cell-based or functional assay

B1: VHH R3_DC23 (VHH)
VHH: QVQLQESGGGLVQAGDSLTLSCAVSGRIFSTYTMGWFRQAPGKEREFVAAVRWGAGTIYYADSMKGRFTISRDSAKNTVDLQMNSTKPEDTAVYYCGAAYVSKANYGSLWYQDSRRYDYWGQGTQVTVSS
  IC50, neutralisation of VSV spike pseudotypes: 2.9 ng/mL and 5.7 ng/mL
